The target of this assay is S蛋白RBD-His(319Arg-532Asn) (SARS-CoV-2, UniProt P0DTC2 319-532).

The EC50 is the concentration giving half of the maximal effect. A higher EC50 goes with lower potency in that assay.

B1: R16-F10抗体 (antibody, V domains shown)
VH: QVQLVQSGPEVKEPGSSVKVSCKASGGTFDTAAISWVRQAPGQGPEWMGGIIPIFGTANYAQKFQGRVTITADESTSTAYMELSSLRSEDTAVYYCAREHTVAPVYGFDVWGQGTLVTVSS
VL: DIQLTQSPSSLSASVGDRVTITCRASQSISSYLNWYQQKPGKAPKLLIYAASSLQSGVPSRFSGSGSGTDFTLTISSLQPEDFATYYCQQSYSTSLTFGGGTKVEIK
In turn, B1 registered an EC50 of 0.05 µg/mL.

Source of the values: patent CN112250763A (SANYOU BIOPHARMACEUTICALS SHANGHAI CO LTD; SHANGHAI ZJ BIO …, dated 2021).
